Assay results: US20020072115A1

Molecular target: α6 integrin (mouse) (UniProt Q61739)
Test: cell-based or functional assay

Sequence of UniProt Q61739 (Q61739 24-1091): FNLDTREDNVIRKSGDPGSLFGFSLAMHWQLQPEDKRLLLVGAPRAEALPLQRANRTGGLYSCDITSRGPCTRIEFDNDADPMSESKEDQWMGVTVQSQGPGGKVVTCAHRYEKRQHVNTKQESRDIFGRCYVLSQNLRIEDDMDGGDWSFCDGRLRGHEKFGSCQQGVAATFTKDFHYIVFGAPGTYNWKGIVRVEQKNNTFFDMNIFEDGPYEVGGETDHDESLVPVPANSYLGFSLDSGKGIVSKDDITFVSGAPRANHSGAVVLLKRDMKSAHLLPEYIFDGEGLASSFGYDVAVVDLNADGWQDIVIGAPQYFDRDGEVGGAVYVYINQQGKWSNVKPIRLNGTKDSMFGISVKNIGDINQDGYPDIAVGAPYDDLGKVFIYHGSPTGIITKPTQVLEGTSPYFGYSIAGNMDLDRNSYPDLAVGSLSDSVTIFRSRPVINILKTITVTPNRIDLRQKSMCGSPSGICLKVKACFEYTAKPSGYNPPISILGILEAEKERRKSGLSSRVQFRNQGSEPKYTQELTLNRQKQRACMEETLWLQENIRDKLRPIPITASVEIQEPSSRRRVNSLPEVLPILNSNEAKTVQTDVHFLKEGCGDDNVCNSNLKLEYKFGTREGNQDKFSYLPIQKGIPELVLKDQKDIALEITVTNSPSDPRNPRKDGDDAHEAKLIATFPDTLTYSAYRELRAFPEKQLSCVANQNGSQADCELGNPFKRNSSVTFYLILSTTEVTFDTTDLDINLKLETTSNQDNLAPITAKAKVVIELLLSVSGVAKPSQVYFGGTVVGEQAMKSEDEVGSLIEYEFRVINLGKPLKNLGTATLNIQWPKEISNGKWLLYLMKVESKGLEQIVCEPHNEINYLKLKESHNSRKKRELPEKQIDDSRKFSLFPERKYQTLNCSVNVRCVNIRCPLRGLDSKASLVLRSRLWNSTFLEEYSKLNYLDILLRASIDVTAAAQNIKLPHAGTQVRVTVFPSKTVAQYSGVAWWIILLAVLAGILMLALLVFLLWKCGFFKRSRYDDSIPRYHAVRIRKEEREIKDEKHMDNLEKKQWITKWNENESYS

total cell number per well (13.5 dpc fetal mouse pancreas cells cultured with laminin-1) (cells per well): 7190 | β cell number per well (13.5 dpc fetal mouse pancreas cells cultured with laminin-1) (cells per well): 6890
Substance: Rat monoclonal antibody (clone NKI-GoH3, IgG2a)
